Test results as given in patent publication US20250288652A1, “BACTERIOPHAGE LYSINE, CHIMERA THEREOF AND APPLICATION THEREOF” (priority 2021, published 2025).

Test system: Propionibacterium acnes
Experiment: MIC of selected lysin after single-step purification, Example 8
Type: cell-based
Conditions: single-step purified lysin
Method: Express PACL 10, 390, 391, 392, 403 and 404 according to the method of Examples 1-4, and perform the following single-step purification: put Escherichia coli BL21 (DE3) containing each recombinant expression plasmid in the self-induction medium incubate at 37° C., 300 rpm for 3 hours, then at 18° C., 300 rpm for 16-18 hours. Cells were collected by centrifugation and lysed by homogenizatoin under high pressure. Clarified lysate from 1 L of E. coli culture medium expressing the protein of interest was loaded onto a 26 mm/200 mm column containing 70 mL of purification resin. The lysin was purified according to the conditions in Table 8-1, and the purity determination of the lyase after single-step purification is shown in FIG. 5. These lysin are used to determine the minimal inhibitory concentration (MIC).
The minimal inhibitory concentration (MIC) determination method is as follows. Propionibacterium acnes is streaked on Fortified Clostridium Agar (Fortified Clostridium Medium RCM with 1.5% agar, RCM was prepared according to the revised recipe, per liter—10 g acid hydrolyzed casein, 10 g beef extract, 3 g yeast extract, 5 g D—glucose, 5 g sodium chloride, 3 g sodium acetate, 0.5 g L-cysteine hydrochloride). Plates were incubated anaerobically at 37° C. for 72 hours. The inoculum for MIC determination was first prepared by resuspending single clones from RCA in 0.9% saline to an OD600 of 0.05, corresponding to 10^7 colony-forming units per milliliter (cfu/mL). The suspension was diluted 20-fold in RCM to an inoculum of 5*10^5 cfu/mL. Two-fold serial dilutions of each lyase were prepared in 0.9% saline and added not to exceed one-tenth of the total culture volume. Cultures were grown anaerobically at 37° C. for 48-72 hours. The MIC is the lowest concentration of lyase at which no growth of P. acnes can be observed with the naked eye.

CN(C)[C@@H]1C(O)=C(C(N)=O)C(=O)[C@@]2(O)C(O)=C3C(=O)c4c(O)cccc4[C@@](C)(O)[C@H]3C[C@@H]12 [Tetracycline, reference compound]
MIC (Cutibacterium acnes, clade IA2, strain 33, read-out: MIC of selected lyases relative to Propionibacterium acnes): 8 µg/mL
MIC of selected lyases relative to Propionibacterium acnes (clade IA1, strain 1): 8 µg/mL
MIC of selected lyases relative to Propionibacterium acnes (clade IA1, strain 5): 8 µg/mL
MIC of selected lyases relative to Propionibacterium acnes (clade IA1, strain 7): 8 µg/mL
MIC of selected lyases relative to Propionibacterium acnes (clade IA2, strain 10): 8 µg/mL
MIC of selected lyases relative to Propionibacterium acnes (clade IA2, strain 17): 8 µg/mL
MIC of selected lyases relative to Propionibacterium acnes (clade II, strain 34): 8 µg/mL

B1: PACL392: chimeric lysin, amino acid sequence SEQ ID NO: 260 (protein)
chain: MTFIQAAHHSSGSNLPPTRVVIHATCPELGFPRASAKGRAVSTARYFQSAISGGSAHYVVDVGETVQCLAEDVIAWHAPPNSRSLGIEICADGGSATSFKNPNVRYSRAQWLSPQVWPAVLRAAALTRQMCQKYGIPVTKLSASDLKAGKKGICGHVDVSNAWHQSDHDDPGPDFPWAEFMAAVKGGATNPGGPGQQDTKPSVPTPSLTEIGDQDMNGCYYNLNSKTRTYLIFDSRSGFYHEFSQGNGNGPMSPDYVNPIAKGWDTGSWPAISPGHAKVLKAALDKVRKGI
modifications: PACL392
MIC of selected lyases relative to Propionibacterium acnes (clade IA1, strain 1): 8 µg/mL
MIC of selected lyases relative to Propionibacterium acnes (clade IA1, strain 5): 8 µg/mL
MIC of selected lyases relative to Propionibacterium acnes (clade IA1, strain 7): 8 µg/mL
MIC of selected lyases relative to Propionibacterium acnes (clade IA2, strain 10): 16 µg/mL
MIC of selected lyases relative to Propionibacterium acnes (clade IA2, strain 17): 16 µg/mL
MIC of selected lyases relative to Propionibacterium acnes (clade IA2, strain 33): 8 µg/mL
MIC of selected lyases relative to Propionibacterium acnes (clade II, strain 34): 8 µg/mL

B2: PACL390: chimeric lysin, amino acid sequence SEQ ID NO: 258 (protein)
chain: MTFIQAAHHSSGSNLPPTRVVIHATCPEMGFPKASAKGRAVSTARYFQSASSGGSAHYVVDIGETVQCLGENVIAWHAPPNAHSLGIEICADGGSATSFSNPKVRYTRAQWLSPQVWPAVLRAAALTRKMCSKYGIPVVKLSASDLKAGKKGICGHVDVSNAFHQSDHDDPGPDFPWAEFMAAVKGGPGQQDTKPSVPTPSLTEIGDQDMNGCYYNLNSKTRTYLIFDSRSGFYHEFSQGNGNGPMSPDYVNPIAKGWDTGSWPAISPGHAKVLKAALDKVRKGI
modifications: PACL390
MIC of selected lyases relative to Propionibacterium acnes (clade IA1, strain 1): 8 µg/mL
MIC of selected lyases relative to Propionibacterium acnes (clade IA1, strain 5): 8 µg/mL
MIC of selected lyases relative to Propionibacterium acnes (clade IA1, strain 7): 8 µg/mL
MIC of selected lyases relative to Propionibacterium acnes (clade IA2, strain 10): 8 µg/mL
MIC of selected lyases relative to Propionibacterium acnes (clade IA2, strain 17): 8 µg/mL
MIC of selected lyases relative to Propionibacterium acnes (clade IA2, strain 33): 8 µg/mL
MIC of selected lyases relative to Propionibacterium acnes (clade II, strain 34): 8 µg/mL

B3: PACL391: chimeric lysin, amino acid sequence SEQ ID NO: 259 (protein)
chain: MTFIQAAHHSSGSNLPPTRVVIHATCPELGFPRASAKGRAVSTARYFQSAISGGSAHYVVDVGETVQCLAEDVIAWHAPPNSRSLGIEICADGGSATSFKNPNVRYSRAQWLSPQVWPAVLRAAALTRQMCQKYGIPVTKLSASDLKAGKKGICGHVDVSNAWHQSDHDDPGPDFPWAEFMAAVKGGATNPGGEVRTPGQQDTKPSVPTPSLTEIGDQDMNGCYYNLNSKTRTYLIFDSRSGFYHEFSQGNGNGPMSPDYVNPIAKGWDTGSWPAISPGHAKVLKAALDKVRKGI
modifications: PACL391
MIC of selected lyases relative to Propionibacterium acnes (clade IA1, strain 1): 8 µg/mL
MIC of selected lyases relative to Propionibacterium acnes (clade IA1, strain 5): 16 µg/mL
MIC of selected lyases relative to Propionibacterium acnes (clade IA1, strain 7): 8 µg/mL
MIC of selected lyases relative to Propionibacterium acnes (clade IA2, strain 10): 32 µg/mL
MIC of selected lyases relative to Propionibacterium acnes (clade IA2, strain 17): 32 µg/mL
MIC of selected lyases relative to Propionibacterium acnes (clade IA2, strain 33): 16 µg/mL
MIC of selected lyases relative to Propionibacterium acnes (clade II, strain 34): 8 µg/mL
